Measurements: patent publication US20250152742A1, “COMPOSITIONS AND METHODS FOR NEUROLOGICAL DISEASES” (Trames Bio, Inc., priority 2022, published 2025)
Numbering of substitutions follows the chain as printed. In names and notes the source's numbering stands.

Legend:
[1] = molecular target: SEQ ID NO: 33 (CODA71) versus wild type α7-nAChR (Homo sapiens, UniProt P36544, F159M/H163T/I152M/R155K/V154L/W156N/Y151P); test: Sensitivity of parental chimera SEQ ID NO: 33 to ligands compared with wild type α7-nAChR
Source text: To generate LGICs that conduct anion current following exposure to non-native small molecule agonists of the human α7-nAChR, chimeric ligand gated ion channel (LGIC) receptors comprising the ligand binding domain derived from the human α7 nicotinic acetylcholine receptor (α7-nAChR) and the chloride-conducting ion pore domain derived from the human GlyR1α were genetically engineered. […] SEQ ID NO:33 was approximate 2-fold less sensitive to nicotine and approximately 3-fold and 10-fold more sensitive to AZD-0328 and Facinicline/RG3487, respectively, than wild type. CODA71 is described in detail in WO2019104307 and WO2021035179, which are incorporated herein in their entireties.

[2] = tested on: engineered receptors and wildtype nAchRa7 receptor expressed in HEK293 cells; test: Whole cell manual patch clamp electrophysiology, EC50, HEK293 cells; type: cell-based, human; details: for EC50: ligand TC-5619, HEK293 cell line, read-out: Manual patch clamp based EC50, TC-5619
Procedure: (§1) Using whole cell manual patch clamp electrophysiology in HEK293 cells, rat DRG neurons and rat hippocampal neurons, the EC50 of the various engineered receptors disclosed herein to Ach and non-native ligands was measured using the Hill equation with peak current measurements from escalating doses of ligand. The rheobase shift was also measured in rat DRG neurons, which reflects the efficacy of the receptors. To calculate the rheobase, first, the amount of current that can produce an action potential was determined. Then the ligand was added, followed by a step wise increase in the current injected up to 700 pA.
(§2) For manual patch clamp experiments, Cells plated on coverslips were visualized at 10x and 40x on an inverted fluorescence microscope (Olympus). Recordings were made with an Axopatch 200B amplifier and Digidata 1550B (Molecular Devices) at RT using 3-6 MOhm glass patch electrodes (Sutter, BF150-86-10). Unless otherwise stated, recordings were made in extracellular solution (ECS) containing: 140 mM sodium chloride, 4 mM potassium chloride, 1 mM magnesium chloride, 2 mM calcium chloride, 10 mM HEPES, and 10 mM D-(+)-glucose (pH=7.3 with sodium hydroxide, osmolarity=305-315 mOsm). An 8-line reservoir (AutoMate Scientific) in combination with an 8-channel zero-dead-volume perfusion pencil (AutoMate Scientific) was used for perfusion. Data was acquired using pClamp software (Molecular Devices). Traces were either analyzed in Clampfit (Molecular Devices) or using custom Python code. Plotting and statistics were performed in GraphPad Prism.
For dose-response, ligand-induced currents were recorded in voltage clamp mode. For HEK cell experiments, recordings took place in the normal ECS with a cesium-based internal solution containing: 140 mM cesium chloride, 5 mM potassium fluoride, 2 mM Calcium chloride, 2 mM magnesium chloride, 10 mM HEPES, and 10 mM EGTA (pH=7.2 with cesium hydroxide, osmolarity=290-295 mOsm). For DRG neuron experiments, cells were patched in normal ECS and then switched to an NMDG-based ECS to prevent endogenous cation currents, containing: 145 mM N-methyl-D-glucamine, 4 mM potassium chloride, 0.5 mM magnesium chloride, 0.5 mM calcium chloride, 10 mM HEPES, and 10 mM D-(+)-glucose (pH=7.4 with hydrochloric acid, osmolarity=305-315mOsm). […] Capacitance and series resistance were compensated. Drugs tested include acetycholine chloride and other synthetic compounds. Drug doses were applied for 1-10 sec until the peak of the current was observed, and washes occurred for at least 2 min between dose applications. The holding current was subtracted from the peak to find the current amplitude.
Cell culture: HEK 293 cells were routinely subcultured in DMEM with 10% fetal bovine serum (ThermoFisher Scientific). […]

[3] = molecular target: engineered receptors expressed in rat DRG neurons; test: Manual patch clamp ligand-induced chloride currents / EC50, rat DRG neurons; type: cell-based; details: for EC50: ligand TC-5619, Rat DRG Neurons, read-out: Manual patch clamp based EC50, TC-5619
Procedure: as §1, §2
For dose-response, ligand-induced currents were recorded in voltage clamp mode. For HEK cell experiments, recordings took place in the normal ECS with a cesium-based internal solution containing: 140 mM cesium chloride, 5 mM potassium fluoride, 2 mM Calcium chloride, 2 mM magnesium chloride, 10 mM HEPES, and 10 mM EGTA (pH=7.2 with cesium hydroxide, osmolarity=290-295 mOsm). […]

[4] = HEK293 cells and cultured rat DRG sensory neurons

B1: CODA71: parental chimeric LGIC: human α7-nAChR ligand binding domain with GlyRα1 Cys-loop fused to human GlyRα1 ion pore domain (protein)
chain: MRCSPGGVWLALAASLLHVSLQGEFQRKLYKELVKNYNPLERPVANDSQPLTVYFSLSLLQIMDVDEKNQVLTTNIWLQMSWTDHYLQWNVSEYPGVKTVRFPDGQIWKPDILLYNSADERFDATFHTNVLVNSSGHCQYLPPGIFKSSCPMDLKNFPMDVQTCKLKFGSWSYGGWSLDLQMQEADISGYIPNGEWDLVGIPGKRSERFYECCKEPYPDVTFTVTMRRRMGYYLIQMYIPSLLIVILSWISFWINMDAAPARVGLGITTVLTMTTQSSGSRASLPKVSYVKAIDIWMAVCLLFVFSALLEYAAVNFVSRQHKELLRFRRKRRHHKSPMLNLFQEDEAGEGRFNFSAYGMGPACLQAKDGISVKGANNSNTTNPPPAPSKSPEEMRKLFIQRAKKIDKISRIGFPMAFLIFNMFYWIIYKIVRREDVHNQ
modifications: synthetic sequence of chimeric LGIC
sensitivity to ABT-126 compared with wild type α7-nAChR ([1]; ligand ABT-126): approximately as sensitive | fold more sensitive to AZD-0328 than wild type ([1]; ligand AZD-0328): approximately 3 fold | fold more sensitive to Facinicline/RG3487 than wild type ([1]; ligand Facinicline/RG3487): ~10 fold | sensitivity to TC-6987 compared with wild type α7-nAChR ([1]; ligand TC-6987): approximately as sensitive | agonist activity of TC-6987 on the receptor ([1]; ligand TC-6987, similar to wild type): partial agonist activity | sensitivity to acetylcholine compared with wild type α7-nAChR ([1]; ligand acetylcholine): approximately as sensitive | fold less sensitive to nicotine than wild type ([1]; ligand nicotine): ~2 fold

B2: COAD1055 (protein)
chain: B1 chain with R101W, Y115E, Y210W
modifications: synthetic sequence of chimeric LGIC
EC50 [2]: 16 nM | EC50 [3]: 56 nM

B3: COAD1056 (protein)
chain: B1 chain with R101F, Y115E, Y210W
modifications: synthetic sequence of chimeric LGIC
EC50 [2]: 96 nM | EC50 [3]: 116 nM

B4: CODA806: engineered receptor: Y115D, L131Q in SEQ ID NO: 33 (Chemogenic receptor-11) (protein)
chain: B1 chain with Y115D, L131Q
modifications: synthetic sequence of chimeric LGIC
sensitivity to RG-3487 compared to wildtype nAchRa7 receptor [2, 4]: way more sensitive to RG-3487 | sensitivity to acetylcholine compared to wildtype nAchRa7 receptor [2, 4]: essentially insensitive to acetylcholine | chloride current on application of RG-3487 (SA-2) ([3]; cultured adult rat DRG neurons, not observed in non-transduced cells, FIG. 3): generated chloride current in a dose dependent manner
